Assays:
[1] = target: the molecule itself; assay: crystal structure; sitting drop; 0.2 M MgCl2, PEG 3350, 0.1 M Bis-Tris pH 6.7; space group C 1 2 1; two monomers (the homodimer) in the asymmetric unit
[2] = target: the molecule itself; assay: SEC; calibrated size-exclusion chromatography (cSEC); HiPrep 16/60 Sephacryl S-200 HR, 4 °C, 150 mM ammonium acetate, pH 6.80, 0.5 mL/min; 40–780 μg protein loaded; dimer to monomers

| Protein | binding result [1] | binding result [2] |
| --- | --- | --- |
| I318T-hLADH (enzyme, human, UniProt P09622 36-509, looked up, Dihydrolipoamide dehydrogenase, human, pathogenic variant I318T; Clinically reported disease-causing variant; mutation verified by MS) ADQPIDADVTVIGSGPGGYVAAIKAAQLGFKTVCIEKNETLGGTCLNVGCIPSKALLNNSHYYHMAHGKDFASRGIEMSEVRLNLDKMMEQKSTAVKALTGGIAHLFKQNKVVHVNGYGKITGKNQVTATKADGGTQVIDTKNILIATGSEVTPFPGITIDEDTIVSSTGALSLKKVPEKMVVIGAGVIGVELGSVWQRLGADVTAVEFLGHVGGVGIDMEISKNFQRILQKQGFKFKLNTKVTGATKKSDGKIDVSIEAASGGKAEVITCDVLLVCIGRRPFTKNLGLEELGIELDPRGRIPVNTRFQTKIPNIYATGDVVAGPMLAHKAEDEGIICVEGMAGGAVHIDYNCVPSVIYTHPEVAWVGKSEEQLKEEGIEYKVGKFPFAANSRAKTNADTDGMVKILGQKSTDRVLGAHILGPGAGEMVNEAALALEYGASCEDIARVCHAHPTLSEAFREANLAASFGKSINF | binds |  |
| G194C-hLADH (enzyme, human, UniProt P09622 36-509, looked up, Dihydrolipoamide dehydrogenase, human, pathogenic variant G194C; Clinically reported disease-causing variant) ADQPIDADVTVIGSGPGGYVAAIKAAQLGFKTVCIEKNETLGGTCLNVGCIPSKALLNNSHYYHMAHGKDFASRGIEMSEVRLNLDKMMEQKSTAVKALTGGIAHLFKQNKVVHVNGYGKITGKNQVTATKADGGTQVIDTKNILIATGSEVTPFPGITIDEDTIVSSTGALSLKKVPEKMVVIGAGVIGVELCSVWQRLGADVTAVEFLGHVGGVGIDMEISKNFQRILQKQGFKFKLNTKVTGATKKSDGKIDVSIEAASGGKAEVITCDVLLVCIGRRPFTKNLGLEELGIELDPRGRIPVNTRFQTKIPNIYAIGDVVAGPMLAHKAEDEGIICVEGMAGGAVHIDYNCVPSVIYTHPEVAWVGKSEEQLKEEGIEYKVGKFPFAANSRAKTNADTDGMVKILGQKSTDRVLGAHILGPGAGEMVNEAALALEYGASCEDIARVCHAHPTLSEAFREANLAASFGKSINF |  | binds |
| K37E-hLADH (enzyme, human, UniProt P09622 36-509, looked up, Dihydrolipoamide dehydrogenase, human, pathogenic variant K37E; Clinically reported disease-causing variant) ADQPIDADVTVIGSGPGGYVAAIKAAQLGFKTVCIEENETLGGTCLNVGCIPSKALLNNSHYYHMAHGKDFASRGIEMSEVRLNLDKMMEQKSTAVKALTGGIAHLFKQNKVVHVNGYGKITGKNQVTATKADGGTQVIDTKNILIATGSEVTPFPGITIDEDTIVSSTGALSLKKVPEKMVVIGAGVIGVELGSVWQRLGADVTAVEFLGHVGGVGIDMEISKNFQRILQKQGFKFKLNTKVTGATKKSDGKIDVSIEAASGGKAEVITCDVLLVCIGRRPFTKNLGLEELGIELDPRGRIPVNTRFQTKIPNIYAIGDVVAGPMLAHKAEDEGIICVEGMAGGAVHIDYNCVPSVIYTHPEVAWVGKSEEQLKEEGIEYKVGKFPFAANSRAKTNADTDGMVKILGQKSTDRVLGAHILGPGAGEMVNEAALALEYGASCEDIARVCHAHPTLSEAFREANLAASFGKSINF |  | binds |
| G426E-hLADH (enzyme, human, UniProt P09622 36-509, looked up, Dihydrolipoamide dehydrogenase, human, pathogenic variant G426E; Clinically reported disease-causing variant) ADQPIDADVTVIGSGPGGYVAAIKAAQLGFKTVCIEKNETLGGTCLNVGCIPSKALLNNSHYYHMAHGKDFASRGIEMSEVRLNLDKMMEQKSTAVKALTGGIAHLFKQNKVVHVNGYGKITGKNQVTATKADGGTQVIDTKNILIATGSEVTPFPGITIDEDTIVSSTGALSLKKVPEKMVVIGAGVIGVELGSVWQRLGADVTAVEFLGHVGGVGIDMEISKNFQRILQKQGFKFKLNTKVTGATKKSDGKIDVSIEAASGGKAEVITCDVLLVCIGRRPFTKNLGLEELGIELDPRGRIPVNTRFQTKIPNIYAIGDVVAGPMLAHKAEDEGIICVEGMAGGAVHIDYNCVPSVIYTHPEVAWVGKSEEQLKEEGIEYKVGKFPFAANSRAKTNADTDGMVKILGQKSTDRVLGAHILGPGAEEMVNEAALALEYGASCEDIARVCHAHPTLSEAFREANLAASFGKSINF |  | binds |
| I358T-hLADH (enzyme, human, UniProt P09622 36-509, looked up, Dihydrolipoamide dehydrogenase, human, pathogenic variant I358T; Clinically reported disease-causing variant; mutation verified by MS) ADQPIDADVTVIGSGPGGYVAAIKAAQLGFKTVCIEKNETLGGTCLNVGCIPSKALLNNSHYYHMAHGKDFASRGIEMSEVRLNLDKMMEQKSTAVKALTGGIAHLFKQNKVVHVNGYGKITGKNQVTATKADGGTQVIDTKNILIATGSEVTPFPGITIDEDTIVSSTGALSLKKVPEKMVVIGAGVIGVELGSVWQRLGADVTAVEFLGHVGGVGIDMEISKNFQRILQKQGFKFKLNTKVTGATKKSDGKIDVSIEAASGGKAEVITCDVLLVCIGRRPFTKNLGLEELGIELDPRGRIPVNTRFQTKIPNIYAIGDVVAGPMLAHKAEDEGIICVEGMAGGAVHIDYNCVPSVTYTHPEVAWVGKSEEQLKEEGIEYKVGKFPFAANSRAKTNADTDGMVKILGQKSTDRVLGAHILGPGAGEMVNEAALALEYGASCEDIARVCHAHPTLSEAFREANLAASFGKSINF | binds |  |
| I445M-hLADH (enzyme, human, UniProt P09622 36-509, looked up, Dihydrolipoamide dehydrogenase, human, pathogenic variant I445M; Clinically reported disease-causing variant) ADQPIDADVTVIGSGPGGYVAAIKAAQLGFKTVCIEKNETLGGTCLNVGCIPSKALLNNSHYYHMAHGKDFASRGIEMSEVRLNLDKMMEQKSTAVKALTGGIAHLFKQNKVVHVNGYGKITGKNQVTATKADGGTQVIDTKNILIATGSEVTPFPGITIDEDTIVSSTGALSLKKVPEKMVVIGAGVIGVELGSVWQRLGADVTAVEFLGHVGGVGIDMEISKNFQRILQKQGFKFKLNTKVTGATKKSDGKIDVSIEAASGGKAEVITCDVLLVCIGRRPFTKNLGLEELGIELDPRGRIPVNTRFQTKIPNIYAIGDVVAGPMLAHKAEDEGIICVEGMAGGAVHIDYNCVPSVIYTHPEVAWVGKSEEQLKEEGIEYKVGKFPFAANSRAKTNADTDGMVKILGQKSTDRVLGAHILGPGAGEMVNEAALALEYGASCEDMARVCHAHPTLSEAFREANLAASFGKSINF |  | binds |
| R447G-hLADH (enzyme, human, UniProt P09622 36-509, looked up, Dihydrolipoamide dehydrogenase, human, pathogenic variant R447G; Clinically reported disease-causing variant) ADQPIDADVTVIGSGPGGYVAAIKAAQLGFKTVCIEKNETLGGTCLNVGCIPSKALLNNSHYYHMAHGKDFASRGIEMSEVRLNLDKMMEQKSTAVKALTGGIAHLFKQNKVVHVNGYGKITGKNQVTATKADGGTQVIDTKNILIATGSEVTPFPGITIDEDTIVSSTGALSLKKVPEKMVVIGAGVIGVELGSVWQRLGADVTAVEFLGHVGGVGIDMEISKNFQRILQKQGFKFKLNTKVTGATKKSDGKIDVSIEAASGGKAEVITCDVLLVCIGRRPFTKNLGLEELGIELDPRGRIPVNTRFQTKIPNIYAIGDVVAGPMLAHKAEDEGIICVEGMAGGAVHIDYNCVPSVIYTHPEVAWVGKSEEQLKEEGIEYKVGKFPFAANSRAKTNADTDGMVKILGQKSTDRVLGAHILGPGAGEMVNEAALALEYGASCEDIAGVCHAHPTLSEAFREANLAASFGKSINF |  | binds |
| I12T-hLADH (enzyme, human, UniProt P09622 36-509, looked up, Dihydrolipoamide dehydrogenase, human, pathogenic variant I12T; Also expressed with an N-terminal Twin-Strep-tag to increase the yield; source: very low-expressing, eluted with contaminating proteins) ADQPIDADVTVTGSGPGGYVAAIKAAQLGFKTVCIEKNETLGGTCLNVGCIPSKALLNNSHYYHMAHGKDFASRGIEMSEVRLNLDKMMEQKSTAVKALTGGIAHLFKQNKVVHVNGYGKITGKNQVTATKADGGTQVIDTKNILIATGSEVTPFPGITIDEDTIVSSTGALSLKKVPEKMVVIGAGVIGVELGSVWQRLGADVTAVEFLGHVGGVGIDMEISKNFQRILQKQGFKFKLNTKVTGATKKSDGKIDVSIEAASGGKAEVITCDVLLVCIGRRPFTKNLGLEELGIELDPRGRIPVNTRFQTKIPNIYAIGDVVAGPMLAHKAEDEGIICVEGMAGGAVHIDYNCVPSVIYTHPEVAWVGKSEEQLKEEGIEYKVGKFPFAANSRAKTNADTDGMVKILGQKSTDRVLGAHILGPGAGEMVNEAALALEYGASCEDIARVCHAHPTLSEAFREANLAASFGKSINF |  | binds |

Source: publication PMC10341545, “Structural and Biochemical Investigation of Selected Pathogenic Mutants of the Human Dihydrolipoamide Dehydrogenase” (International Journal of Molecular Sciences, 2023)
